Data: patent US20220226473A1, “Nucleic acid nanocarrier drug and preparation method thereof, pharmaceutical composition and application thereof” (BAI YAO ZHI DA (BEIJING) NANOBIO TECHNOLOGY CO., LTD., priority 2018, published 2022)
Positions count from the first letter of the chain named. {Biotin} = biotin (Bio) of the a-strand; {Bio} = biotin of the strand

B1: D-8: extension fragment deformation+core short-sequence DNA nanoparticle, SEQ ID NO: 141-143, a-strand 3′ biotin (nucleic acid)
chain 1: GCGGCGAGCGGCGAGGAGCGTTGGGGCCGGAGGCCGG
chain 2: CCGGCCTCCGGCCCCTTCGGGGCCAGCCGCC
chain 3: GGCGGCAGGCCCCCATAGCCCTCGCCGCTCGCCGC
modifications: chain 1: DNA, 3' {Biotin}, backbone and methylation of C not given here; chain 2: DNA, backbone and methylation of C not given here; chain 3: DNA, backbone and methylation of C not given here; three-strand DNA nanoparticle carrier
B2: D-12: extension fragment deformation+core short-sequence DNA nanoparticle, SEQ ID NO: 153-155, 3′ biotin (nucleic acid)
chain 1: B1 chain 1 with G16C, G23C
chain 2: B1 chain 2 with C15G, G21C, G22C
chain 3: B1 chain 3 with C10G, C11G, C20G
modifications: chain 1: DNA, 3' {Biotin}, backbone not given here; chain 2: DNA, backbone not given here; chain 3: DNA, backbone not given here; three-strand DNA nanoparticle carrier
B3: D-10: extension fragment deformation+core short-sequence DNA nanoparticle, SEQ ID NO: 147-149, 3′ biotin (nucleic acid)
chain 1: B1 chain 1
chain 2: B1 chain 2 with G20C, G21C
chain 3: B1 chain 3 with C11G, C12G
modifications: chain 1: DNA, 3' {Bio}, backbone not given here; chain 2: DNA, backbone not given here; chain 3: DNA, backbone not given here; three-strand DNA nanoparticle carrier
B4: D-11: extension fragment deformation+core short-sequence DNA nanoparticle, SEQ ID NO: 150-152, 3′ biotin (nucleic acid)
chain 1: B1 chain 1 with G16C, G23C
chain 2: B1 chain 2 with C15G, G21C
chain 3: B1 chain 3 with C11G, C20G
modifications: chain 1: DNA, 3' {Bio}, backbone not given here; chain 2: DNA, backbone not given here; chain 3: DNA, backbone not given here; three-strand DNA nanoparticle carrier
B5: D-13: extension fragment deformation+core short-sequence DNA nanoparticle, SEQ ID NO: 156-158, 3′ biotin (nucleic acid)
chain 1: B1 chain 1 with G15C, G24C
chain 2: B1 chain 2 with C14G, G20C, G21C
chain 3: B1 chain 3 with C11G, C12G, C21G
modifications: chain 1: DNA, 3' {Bio}, backbone not given here; chain 2: DNA, backbone not given here; chain 3: DNA, backbone not given here; three-strand DNA nanoparticle carrier
B6: D-9: extension fragment deformation+core short-sequence DNA nanoparticle, SEQ ID NO: 144-146, 3′ biotin (nucleic acid)
chain 1: B1 chain 1 with G16C, G23C
chain 2: B1 chain 2 with C15G, G20C, G21C
chain 3: B1 chain 3 with C11G, C12G, C20G
modifications: chain 1: DNA, 3' {Bio}, backbone and methylation of C not given here; chain 2: DNA, backbone and methylation of C not given here; chain 3: DNA, backbone and methylation of C not given here; three-strand DNA nanoparticle carrier

Experiments:
[1] = Electric potential (zeta potential) measurement of self-assembly products; type: physicochemical; conditions: result over 3 detections, at 25 DEG C.
Protocol: Measurement method: preparing a potential sample (the self-assembly product is dissolved in ultrapure water) and putting into a sample pool, opening a sample pool cover of an instrument, and placing the instrument;
opening software, clicking a menu MeasUre€ManUal, so a manual measurement parameter setting dialog box appears;
setting a software detection parameter;
and then clicking Ok to complete the settings, after a measurement dialog box appears, clicking start to start.
and then clicking Ok to complete the settings, after a measurement dialog box appears, clicking Start to start.
Measurement method: preparing a potential sample (the self-assembly product is dissolved in ultrapure water) and putting into a sample pool, opening a sample pool cover of an instrument, and placing the instrument:
Measurement result potential detection results of the 7 groups of the extension fragment deformation+core short-sequence RNA nanoparticles at 25 DEG C. are as follows:
setting a software detection parameter; and then
clicking Ok to complete the settings, after a measurement dialog box appears, clicking Start to start.
Measurement result potential detection results of the 7 groups of the extension fragment deformation+core short-sequence DNA nanoparticles at 25 DEG C. are as follows: […]

[2] = Particle size measurement (DLS hydrodynamic size); type: physicochemical; conditions: DLS hydrodynamic size
From the text: 1. Preparing a potential sample (conventional-sequence DNA self-assembly product D-7) and putting into a sample pool, opening a sample pool cover of an instrument, and placing the instrument;
2. opening software, and clicking a menu, so a manual measurement parameter setting dialog box appears;
3. setting a software detection parameter; and then
4. clicking Ok to complete the settings, when a measurement dialog box appears, clicking Start to start, a DLS measurement value result of a hydrodynamic size of the self-assembly product D-7 is shown below in Table 40: […]

[3] = TM value detection by solubility curve method (SYBR Green I); type: physicochemical; conditions: DNA nanoparticles
Protocol: A solubility curve method is used to detect TM values of the 7 groups of the extension fragment deformation+core short-sequence RNA nanoparticles, and the samples are consistent with the potential samples.
(1) After the sample is diluted with ultrapure water, 5 μg of the diluted sample is mixed with 2 μL of SYBR Green I dye (diluted by 1:200), a final volume is 20 μL, and the dilution concentration is as follows:
(2) It is incubated for 30 min in the dark at a room temperature; and
(3) On-machine detection is performed, a program is set to start at 20 DEG C., the temperature rises per second from 0.1 DEG C. to 95 DEG C., and reading is performed every 5 s.
Due to the particularity of the RNA samples, a temperature corresponding to ½ RFUmax in a range of 20 to 90 DEG C. is used as a sample Tm value in this test.
A solubility curve method is used to detect TM values of the 7 groups of the extension fragment deformation+core short-sequence DNA nanoparticles, and the samples are consistent with the potential samples.
(1) After the sample is diluted with ultrapure water, 5 μg of the diluted sample is mixed with 2 μL of SYBR Green I dye (diluted by 1:200). a final volume is 20 μL, and the dilution concentration is as follows: […]

[4] = Drug loading rate of nucleic acid nanoparticles (chemical loading, absorbance standard curve); type: physicochemical; design: unit not given here; conditions: for doxorubicin loading rate: chemical loading method of Embodiment 5
From the text: According to the chemical loading method (unless otherwise specified, the method is the same as that of Embodiment 5) of Embodiment 5, the RNA nanoparticles formed by the self-assembly of the previous R-15, R-16, R-17, R-18, R-19, R-20 and R-21 in Embodiment 9, and the DNA nanoparticles formed by the self-assembly of the D-8, D-9, D-10, D-11, D-12, D-13 and D-14 in Embodiment 10 are respectively used as doxorubicin loading carriers, doxorubicin loading rates measured are respectively as follows:
According to the chemical loading method (unless otherwise specified, the method is the same as that of Embodiment 5) of Embodiment 5, the DNA nanoparticles formed by the self-assembly of the previous D-10 and D-14 in Embodiment 10 are used as a daunorubicin loading carrier.
According to a chemical loading method of Embodiment 5 (unless otherwise specified, the method is the same as that of Embodiment 5, the same molar number of the epirubicin is used as a loading amount), nucleic acid nanoparticles (a molecular weight is 29550, it is similar to the RNA nanoparticles in Embodiment 1, and a difference is that a fluorescent label on a c-strand is Cy5) are used as a carrier, and respectively loaded with: epirubicin, methotrexate, pirarubicin, daunorubicin, […], 10-hydroxycamptothecin, aspirin and gemcitabine.
Herein, when a standard curve is drawn, the absorbance of the above drugs on the microplate reader is measured respectively. The absorbance of the epirubicin, methotrexate, pirarubicin, daunorubicin, […], 10-hydroxycamptothecin, aspirin and gemcitabine is respectively detected at the following wavelengths: 492 nm, 303 nm, 492 nm, 492 nm, 265 nm, 384 nm, 225 nm and 268 nm. The standard curves obtained correspondingly are respectively shown in FIG. 48a, FIG. 49, FIG. 50sa, FIG. 51, FIG. 52, FIG. 53, FIG. 54a and FIG. 55. […]

HepG2 cells [5] = assay: Cell binding of DNA nanoparticles and carrier drugs by FACS; type: cell-based; conditions: incubated at 37 DEG C. for 2 h, flow cytometry
Protocol: 1. A cell state is adjusted to a logarithmic growth phase, the medium is changed into a medium without biotin and folic acid, and it is incubated overnight in an incubator at 37 DEG C.
2. After incubation, cell suspension is trypsinized and collected, and centrifuged at 1000 rpm for 5 min, after the concentration is adjusted, a 2×10^6-5×10^6 cell/EP tube is taken and washed twice with 1 mL/tube of 1% BSA-PBS, and cells at the bottom of the tube is observed to prevent them from being absorbed.
3. A substance to be tested is dissolved, and the substance to be tested is diluted to a use concentration.
4. Cell supernatant is absorbed, 100 μL of a corresponding sample is added to each tube in order, light is avoided, and it is incubated at 37 DEG C. for 2 h.
5. It is washed twice with 1% BSA-PBS; and centrifuged at 1000 rpm for 5 min.
6. Finally, it is precipitated with 300 μL of PBS cell resuspension, and flow Cytometric on-machine detection (the blank carrier used in the present embodiment is labeled by Quasar670, and the doxorubicin in the carrier drug has its own fluorescence, so the detection may be performed through FL4-APC and FL2-PE respectively) is performed.

HepG2 cells [6] = assay: CCK8 toxicity of DNA nanoparticles and carrier drugs; type: cell-based; conditions: HepG2, CCK8, 72 hours
Protocol: A CCK8 method is used to detect the toxicity of DNA nanoparticles and carrier drugs to HepG2.
2. A sample to be tested is diluted according to the following table and added: the original culture medium is removed and 100 μL of a culture medium of the sample to be tested with the different concentration is added, and there are 3 replicate wells in each group.
In the present embodiment, the loaded drug and the blank carrier are firstly prepared into 100 μM of stock solution using the PBS, and then diluted with the complete culture medium (biotin-free DMEM). The original drug doxorubicin is firstly prepared into 100 NM of stock solution by using the DMSO, and then diluted with the complete culture medium (biotin-free DMEM). The DMSO is directly diluted with the complete medium (biotin-free DMEM).
3. After the sample to be tested is added, the 96-well plate is placed in an incubator under 37 DEG C. and 5% CO2 and incubated for 72 hours.
4. A kit is taken out and melted at a room temperature, 10 μL of CCK-8 solution is added to each wall, or the CCK8 solution is nixed with the culture medium at a ratio of 1:9, and then added to the well in an amount of 100 μL/well.
5. It is continuously incubated in the cell incubator for 4 hours, and a length of time depends on experimental conditions such as a cell type and a el density.
6. A microplate reader is used to measure an absorbance at 450 nm.
7. Calculation: cell viability (%)=(OD experimental group−OD blank group)[…]/(OD control group−OD blank group), IC50 is calculated by GraphPad Prism 5.0.

Row | Molecule | Potential ZP, Experiment result [1] [mV] | Mean particle size (nm) [2] [nm] | TM value (° C.) [3] | doxorubicin loading rate [4] | Positive rate (HepG2 cells [5]; HepG2, 1 μM) [%] | Positive rate (HepG2 cells [5]; HepG2, 2 μM) [%] | IC50 (HepG2 cells [6]) [µM] | daunorubicin loading rate ([4]; absorbance at 492 nm)
1 | B1 | −30.23 | 7.460 | 48.5 °C | 28.0 | 96.9 | 98.4 | > 1 | –
2 | B2 | −32.50 | 6.968 | 51.5 °C | 27.6 | 96.9 | 97.1 | > 1 | –
3 | B3 | −25.77 | 7.220 | 54.5~55.0 °C | 18.9 | 97.9 | 98.3 | > 1 | 24.0
4 | B4 | −27.43 | 7.472 | 48.7 °C | 26.8 | 97.7 | 97.8 | > 1 | –
5 | B5 | −27.00 | 7.012 | 51.0 °C | 31.8 | 97.6 | 98.2 | > 1 | –
6 | B6 | −35.07 | 7.920 | 52.5 °C | 27.9 | 96.7 | 98.1 | > 1 | –
